Test results taken from paper PMC9935906, “Network of hotspot interactions cluster tau amyloid folds” (Nature Communications, 2023).

B1: VAIVYK peptide (peptide)
peptide: VAIVYK
notes: Acetyl and amide caps and the supplier (GenScript) are stated only for the ZipperDB-predicted hexapeptides; likely the same here; also called VQIVYK alanine mutant at position two; source: peptide
B2: VQIVAK peptide (peptide)
peptide: VQIVAK
notes: Acetyl and amide caps and the supplier (GenScript) are stated only for the ZipperDB-predicted hexapeptides; likely the same here; also called VQIVYK alanine mutant at position five; source: peptide
B3: VQIVYA peptide (peptide)
peptide: VQIVYA
notes: Acetyl and amide caps and the supplier (GenScript) are stated only for the ZipperDB-predicted hexapeptides; likely the same here; also called VQIVYK alanine mutant at position six; source: peptide
B4: AQIVYK peptide (peptide)
peptide: AQIVYK
notes: Acetyl and amide caps and the supplier (GenScript) are stated only for the ZipperDB-predicted hexapeptides; likely the same here; also called VQIVYK alanine mutant at position one; source: peptide
B5: 306VQIVYK311 peptide (peptide)
peptide: Ac-VQIVYK-NH2
notes: also called WT; source: synthetic peptide, bought: GenScript (≥95% purity)
B6: 275VQIINK280 peptide (peptide)
peptide: Ac-VQIINK-NH2
notes: source: synthetic peptide, bought: GenScript (≥95% purity)

Target: the molecule itself
Assay: ThT fluorescence aggregation assay + TEM; peptide alone, 200 µM in 1X PBS + 25 µM ThT, 37 °C, one week, endpoint ThT; fibrils checked by negative-stain TEM; self-assembly into fibrils

Binding result, binds:
B1
B2
B3
B4

Target: the molecule itself
Assay: ThT fluorescence aggregation assay + TEM; peptide alone, 1 mM in 1X PBS, neutral pH, one week at 37 °C with 900 RPM orbital shaking; endpoint ThT (15 µM) and negative-stain TEM; self-assembly into fibrils

Binding result, binds:
B5
B6
